Data from publication PMC10786891, “Massively parallel profiling of RNA-targeting CRISPR-Cas13d”.
Substitutions are numbered along the chain they refer to.

B1: target 2 MT 5'PFS ACA 3'PFS UCA (mixed)
RNA 1: CACCCGUGCAAAAUUGCAGGGGUCUAAAACCUUCUCCAAAUUGUUUCAUCCU
RNA 2: GGGAAUGGAUCCACAUCUACGAAUUCACAAGGAUGAAACAAUUUGGAGAAGUCAAGAUCGGAAGAGCACACGU
B2: target 2 MT 5'PFS UCA 3'PFS CAU (mixed)
RNA 1: B1 RNA 1
RNA 2: B1 RNA 2 with A27U, U52C, C53A, A54U
B3: target 2 MT 5'PFS UAU 3'PFS GAU (mixed)
RNA 1: B1 RNA 1
RNA 2: B1 RNA 2 with A27U, C28A, A29U, U52G, C53A, A54U
B4: target 2 MT 5'PFS GAA 3'PFS CUG (mixed)
RNA 1: B1 RNA 1
RNA 2: B1 RNA 2 with A27G, C28A, U52C, C53U, A54G
B5: target 2 MT 5'PFS GAA 3'PFS CUA (mixed)
RNA 1: B1 RNA 1
RNA 2: B1 RNA 2 with A27G, C28A, U52C, C53U
B6: target 2 MT 5'PFS GAA 3'PFS CUC (mixed)
RNA 1: B1 RNA 1
RNA 2: B1 RNA 2 with A27G, C28A, U52C, C53U, A54C
B7: target 2 MT 5'PFS UCA 3'PFS CAG (mixed)
RNA 1: B1 RNA 1
RNA 2: B1 RNA 2 with A27U, U52C, C53A, A54G
B8: target 1 insG 3' of 14,insC 3' of 3 (mixed)
RNA 1: CACCCGUGCAAAAAUGCAGGGGUCUAAAACUGAGCGGAUAACCUCUCUAUGG
RNA 2: GGGAAUGGAUCCACAUCUACGAAUUCGUACCAUAGAGAGGGUUAUCCGCUCCACCGAGAUCGGAAGAGCACACGU
B9: target 2 MT 5'PFS UCA 3'PFS CAA (mixed)
RNA 1: B1 RNA 1
RNA 2: B1 RNA 2 with A27U, U52C, C53A
B10: target 2 MT 5'PFS GCA 3'PFS UCA (mixed)
RNA 1: B1 RNA 1
RNA 2: B1 RNA 2 with A27G
B11: target 2 MT 5'PFS GAA 3'PFS CUU (mixed)
RNA 1: B1 RNA 1
RNA 2: B1 RNA 2 with A27G, C28A, U52C, C53U, A54U
B12: target 2 MT 5'PFS UGU 3'PFS CUU (mixed)
RNA 1: B1 RNA 1
RNA 2: B1 RNA 2 with A27U, C28G, A29U, U52C, C53U, A54U
B13: target 2 MT 5'PFS UCU 3'PFS UUG (mixed)
RNA 1: B1 RNA 1
RNA 2: B1 RNA 2 with A27U, A29U, C53U, A54G
B14: target 2 MT 5'PFS UGU 3'PFS CUA (mixed)
RNA 1: B1 RNA 1
RNA 2: B1 RNA 2 with A27U, C28G, A29U, U52C, C53U
B15: target 2 MT 5'PFS UGU 3'PFS CUC (mixed)
RNA 1: B1 RNA 1
RNA 2: B1 RNA 2 with A27U, C28G, A29U, U52C, C53U, A54C
B16: target 2 MT 5'PFS GCG 3'PFS AUU (mixed)
RNA 1: B1 RNA 1
RNA 2: B1 RNA 2 with A27G, A29G, U52A, C53U, A54U
B17: target 2 MT 5'PFS CUG 3'PFS CUU (mixed)
RNA 1: B1 RNA 1
RNA 2: B1 RNA 2 with A27C, C28U, A29G, U52C, C53U, A54U
B18: target 2 MT 5'PFS ACC 3'PFS CAU (mixed)
RNA 1: B1 RNA 1
RNA 2: B1 RNA 2 with A29C, U52C, C53A, A54U

These binders were tested against T1, EsCas13d, nuclease-dead (Eubacterium siraeum, UniProt B0MS50, R295A;H300A;R849A;H854A) (assay: crRNA (strand 1, pre-loaded); Mg2+; 40 mM Tris-HCl pH 7.5, 150 mM NaCl, 6 mM MgCl2, 1 mM DTT, 0.1% Tween-20, 0.2 mg/ml BSA; 25 C; 10 min per concentration, then washed). Settings: tags: His6-TwinStrep-SUMO cleaved; N-terminal SNAP kept (SNAP-Surface 488); label: 3' end held by stalled T7 RNA polymerase.
T1 sequence: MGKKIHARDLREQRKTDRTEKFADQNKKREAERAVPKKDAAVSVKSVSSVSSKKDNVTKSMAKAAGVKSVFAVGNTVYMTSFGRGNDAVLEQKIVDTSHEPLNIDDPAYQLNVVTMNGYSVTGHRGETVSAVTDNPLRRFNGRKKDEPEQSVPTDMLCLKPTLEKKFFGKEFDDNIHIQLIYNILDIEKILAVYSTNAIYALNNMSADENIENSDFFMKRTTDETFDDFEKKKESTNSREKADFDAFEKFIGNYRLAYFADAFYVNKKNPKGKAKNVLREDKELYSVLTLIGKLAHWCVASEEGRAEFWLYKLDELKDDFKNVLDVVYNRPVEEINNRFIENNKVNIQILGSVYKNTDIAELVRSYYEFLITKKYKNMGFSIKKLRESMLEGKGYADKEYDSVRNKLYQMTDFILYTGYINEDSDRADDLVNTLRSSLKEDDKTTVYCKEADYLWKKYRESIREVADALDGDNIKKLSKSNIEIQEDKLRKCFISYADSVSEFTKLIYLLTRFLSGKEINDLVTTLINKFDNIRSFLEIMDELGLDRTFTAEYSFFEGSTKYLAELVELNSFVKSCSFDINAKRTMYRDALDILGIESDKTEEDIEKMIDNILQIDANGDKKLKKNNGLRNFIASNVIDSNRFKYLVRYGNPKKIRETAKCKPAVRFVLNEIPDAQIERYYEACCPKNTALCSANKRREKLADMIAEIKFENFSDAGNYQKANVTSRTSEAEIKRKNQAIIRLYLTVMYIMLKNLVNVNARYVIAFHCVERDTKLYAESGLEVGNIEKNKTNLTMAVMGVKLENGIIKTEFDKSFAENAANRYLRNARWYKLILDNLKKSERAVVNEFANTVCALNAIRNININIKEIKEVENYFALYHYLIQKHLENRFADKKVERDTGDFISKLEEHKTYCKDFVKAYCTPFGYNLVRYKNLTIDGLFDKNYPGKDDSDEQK
B1 showed a Kd of 0.0087 ± 0.0032 µM.
For B2, the Kd was 0.0048 ± 0.0011 µM.
With B3 the Kd was roughly 0.044 µM.
Work on B4 yielded a Kd of 0.0112 ± 0.0014 µM.
For B5, the Kd was 0.0069 ± 0.0011 µM.
For B6, the Kd was 0.016 ± 0.004 µM.
Binder B7 has a Kd of 0.0031 ± 0.0004 µM.
B8 gave a Kd of 0.0105 ± 0.0009 µM.
B9 showed a Kd of 0.0053 ± 0.0012 µM.
B10 showed a Kd of 0.0109 ± 0.0021 µM.
For B11, the Kd was 0.0151 ± 0.0027 µM.
B12 was tested, and the Kd was 0.0146 ± 0.002 µM.
B13 was tested, and the Kd was 0.0169 ± 0.0028 µM.
B14 showed a Kd of 0.0129 ± 0.002 µM.
B15 gave a Kd of roughly 0.05 µM.
With B16 the Kd was 0.0126 ± 0.002 µM.
Work on B17 yielded a Kd of 0.00355 ± 0.00034 µM.
For B18, the Kd was 0.01 ± 0.004 µM.
